One block for each binder: values may come before it.
Assays:
Assay in all cases: cell-based or functional assay
[1] = target: MMP8 (human, UniProt P22894 101-467, limits assumed)
[2] = target: T1, ADAMTS5 (human, UniProt Q9UNA0 262-622, limits assumed)
T1 sequence (looked up): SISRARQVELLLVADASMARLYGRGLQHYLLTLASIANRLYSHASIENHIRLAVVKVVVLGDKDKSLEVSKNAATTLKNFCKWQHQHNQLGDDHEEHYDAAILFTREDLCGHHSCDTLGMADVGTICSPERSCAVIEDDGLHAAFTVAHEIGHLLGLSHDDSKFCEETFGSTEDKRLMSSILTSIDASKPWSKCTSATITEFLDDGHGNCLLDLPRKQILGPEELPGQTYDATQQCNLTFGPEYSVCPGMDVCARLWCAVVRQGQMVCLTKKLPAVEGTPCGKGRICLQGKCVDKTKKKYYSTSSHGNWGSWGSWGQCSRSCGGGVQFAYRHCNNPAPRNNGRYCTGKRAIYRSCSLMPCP

[3] = target: T2, ADAMTS4 (human, UniProt O75173 213-685, limits assumed)
T2 sequence (looked up): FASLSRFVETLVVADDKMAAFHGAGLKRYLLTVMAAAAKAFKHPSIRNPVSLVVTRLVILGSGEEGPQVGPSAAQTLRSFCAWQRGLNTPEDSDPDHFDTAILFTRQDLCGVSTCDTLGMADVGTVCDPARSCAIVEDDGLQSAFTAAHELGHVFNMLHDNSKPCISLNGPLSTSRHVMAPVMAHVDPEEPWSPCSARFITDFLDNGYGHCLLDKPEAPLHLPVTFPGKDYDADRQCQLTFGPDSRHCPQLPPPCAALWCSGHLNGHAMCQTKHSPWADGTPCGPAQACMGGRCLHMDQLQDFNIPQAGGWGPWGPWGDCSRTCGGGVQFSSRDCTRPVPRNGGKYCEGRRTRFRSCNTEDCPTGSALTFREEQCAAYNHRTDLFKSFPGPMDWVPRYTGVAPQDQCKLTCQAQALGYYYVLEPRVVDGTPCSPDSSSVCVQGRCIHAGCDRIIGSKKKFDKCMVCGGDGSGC

[4] = target: T3, MMP2 (human, UniProt P08253 110-660, limits assumed)
T3 sequence (looked up): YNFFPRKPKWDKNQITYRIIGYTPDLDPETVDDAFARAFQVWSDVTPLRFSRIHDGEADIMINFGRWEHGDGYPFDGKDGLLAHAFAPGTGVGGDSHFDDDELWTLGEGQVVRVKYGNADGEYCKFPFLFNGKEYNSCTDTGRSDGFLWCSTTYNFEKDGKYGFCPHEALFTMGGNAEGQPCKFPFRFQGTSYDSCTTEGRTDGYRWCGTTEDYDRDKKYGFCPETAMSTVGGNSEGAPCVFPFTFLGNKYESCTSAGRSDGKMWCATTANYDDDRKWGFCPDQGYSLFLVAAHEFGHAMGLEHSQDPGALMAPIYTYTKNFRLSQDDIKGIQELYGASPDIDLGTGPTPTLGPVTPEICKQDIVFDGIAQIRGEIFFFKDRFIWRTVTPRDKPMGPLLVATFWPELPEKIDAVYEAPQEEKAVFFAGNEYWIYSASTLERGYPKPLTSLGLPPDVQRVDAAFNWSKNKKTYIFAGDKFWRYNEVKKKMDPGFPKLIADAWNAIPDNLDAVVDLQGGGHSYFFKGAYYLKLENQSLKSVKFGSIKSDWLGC

[5] = target: MMP3 (human, UniProt P08254 100-477, limits assumed)
[6] = target: T4, MMP1 (human, UniProt P03956 100-469, limits assumed)
T4 sequence (looked up): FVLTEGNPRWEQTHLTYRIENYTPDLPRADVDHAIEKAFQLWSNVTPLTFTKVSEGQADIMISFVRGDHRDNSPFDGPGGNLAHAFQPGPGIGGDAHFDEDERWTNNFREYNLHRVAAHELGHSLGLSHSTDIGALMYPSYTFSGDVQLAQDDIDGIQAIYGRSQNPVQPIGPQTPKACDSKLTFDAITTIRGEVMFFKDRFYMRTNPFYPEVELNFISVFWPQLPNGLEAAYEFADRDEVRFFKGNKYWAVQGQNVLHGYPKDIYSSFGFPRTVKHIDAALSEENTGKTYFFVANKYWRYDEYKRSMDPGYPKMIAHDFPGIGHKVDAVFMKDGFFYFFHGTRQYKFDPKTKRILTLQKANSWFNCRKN

[7] = target: MMP12 (human, UniProt P39900 106-470, limits assumed)
[8] = target: MMP13 (human, UniProt P45452 104-471, limits assumed)
[9] = target: MMP9 (human, UniProt P14780 107-707, limits assumed)
[10] = target: bovine trypsin (bovine, UniProt P00760 24-246)
[11] = target: Elastase
[12] = target: chymotrypsin
[13] = target: T5, Cathepsin G (UniProt P08311 21-244)
T5 sequence (looked up): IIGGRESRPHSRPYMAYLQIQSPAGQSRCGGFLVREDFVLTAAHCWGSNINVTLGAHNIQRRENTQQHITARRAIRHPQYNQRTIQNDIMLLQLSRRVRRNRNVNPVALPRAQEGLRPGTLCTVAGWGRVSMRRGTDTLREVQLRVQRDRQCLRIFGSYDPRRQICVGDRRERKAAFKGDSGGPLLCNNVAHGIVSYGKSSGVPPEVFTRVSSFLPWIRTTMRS

MMP3, sequence (P08254 100-477 limits assumed): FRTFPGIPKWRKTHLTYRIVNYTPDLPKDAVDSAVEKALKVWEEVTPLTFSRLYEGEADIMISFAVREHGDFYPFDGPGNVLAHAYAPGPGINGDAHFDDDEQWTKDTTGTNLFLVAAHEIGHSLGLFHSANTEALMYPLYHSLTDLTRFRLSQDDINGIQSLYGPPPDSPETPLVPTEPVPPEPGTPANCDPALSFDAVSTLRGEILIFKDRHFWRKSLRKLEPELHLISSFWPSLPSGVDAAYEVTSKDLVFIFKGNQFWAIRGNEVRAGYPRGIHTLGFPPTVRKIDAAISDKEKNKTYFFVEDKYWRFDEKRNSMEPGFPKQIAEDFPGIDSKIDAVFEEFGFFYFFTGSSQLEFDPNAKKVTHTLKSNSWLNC
MMP12, sequence (P39900 106-470 limits assumed): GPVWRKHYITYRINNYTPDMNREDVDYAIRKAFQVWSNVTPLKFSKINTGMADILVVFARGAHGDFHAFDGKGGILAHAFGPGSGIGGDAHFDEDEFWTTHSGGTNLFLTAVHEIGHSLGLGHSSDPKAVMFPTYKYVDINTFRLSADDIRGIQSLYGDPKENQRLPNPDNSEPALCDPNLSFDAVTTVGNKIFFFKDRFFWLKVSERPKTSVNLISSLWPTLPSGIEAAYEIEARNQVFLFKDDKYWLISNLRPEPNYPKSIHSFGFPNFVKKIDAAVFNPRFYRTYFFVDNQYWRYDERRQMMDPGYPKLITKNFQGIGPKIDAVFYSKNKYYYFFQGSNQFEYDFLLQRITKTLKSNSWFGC
bovine trypsin, sequence (P00760 24-246): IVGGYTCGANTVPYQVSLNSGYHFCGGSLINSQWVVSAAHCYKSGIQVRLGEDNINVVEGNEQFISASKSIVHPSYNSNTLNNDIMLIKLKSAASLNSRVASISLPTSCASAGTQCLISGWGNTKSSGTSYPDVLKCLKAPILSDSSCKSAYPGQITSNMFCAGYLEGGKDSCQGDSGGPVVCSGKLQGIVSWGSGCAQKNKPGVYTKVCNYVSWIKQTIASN
MMP9, sequence (P14780 107-707 limits assumed): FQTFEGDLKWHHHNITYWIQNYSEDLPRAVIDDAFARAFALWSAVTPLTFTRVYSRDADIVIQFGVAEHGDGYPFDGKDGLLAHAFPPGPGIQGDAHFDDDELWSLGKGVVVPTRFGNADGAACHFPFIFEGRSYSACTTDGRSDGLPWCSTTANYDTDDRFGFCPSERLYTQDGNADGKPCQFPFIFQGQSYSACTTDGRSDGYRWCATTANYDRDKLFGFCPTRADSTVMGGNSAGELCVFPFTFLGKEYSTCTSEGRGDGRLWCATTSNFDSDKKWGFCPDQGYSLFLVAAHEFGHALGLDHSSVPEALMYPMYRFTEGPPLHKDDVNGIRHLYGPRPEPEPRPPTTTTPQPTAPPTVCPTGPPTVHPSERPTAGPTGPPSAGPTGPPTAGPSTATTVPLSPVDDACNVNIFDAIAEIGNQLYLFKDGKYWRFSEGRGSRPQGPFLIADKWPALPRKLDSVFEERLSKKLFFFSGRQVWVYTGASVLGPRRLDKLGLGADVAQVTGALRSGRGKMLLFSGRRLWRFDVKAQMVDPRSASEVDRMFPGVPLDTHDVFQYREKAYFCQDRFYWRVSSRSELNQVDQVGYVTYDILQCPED
MMP8, sequence (P22894 101-467 limits assumed): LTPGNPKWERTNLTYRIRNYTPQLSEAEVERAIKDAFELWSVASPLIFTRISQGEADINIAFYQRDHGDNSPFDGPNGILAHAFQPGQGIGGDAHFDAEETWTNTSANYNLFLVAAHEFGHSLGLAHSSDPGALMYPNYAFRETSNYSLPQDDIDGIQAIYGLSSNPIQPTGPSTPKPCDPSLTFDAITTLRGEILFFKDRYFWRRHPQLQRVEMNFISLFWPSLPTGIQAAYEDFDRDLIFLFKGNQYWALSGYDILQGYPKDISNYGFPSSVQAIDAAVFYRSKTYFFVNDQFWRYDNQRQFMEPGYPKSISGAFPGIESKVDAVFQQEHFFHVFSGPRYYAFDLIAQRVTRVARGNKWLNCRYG

Protease Inhibition (% of WT) [1]: 210 % of WT
Protease Inhibition (% of WT) [2]: 205 % of WT
Protease Inhibition (% of WT) [3]: 82 % of WT
Protease Inhibition (% of WT) [4]: 118 % of WT
Protease Inhibition (% of WT) [5]: 130 % of WT
Protease Inhibition (% of WT) [6]: 327 % of WT
Protease Inhibition (% of WT) [7]: 170 % of WT
Protease Inhibition (% of WT) [8]: 131 % of WT
Protease Inhibition (% of WT) [9]: 500 % of WT
Protease Inhibition (% of WT) [10]: 84 % of WT
Protease Inhibition (% of WT) [11]: 102 % of WT
Protease Inhibition (% of WT) [12]: 25 % of WT
Protease Inhibition (% of WT) [13]: 324 % of WT
B1: Variant A2M, bait region SEQ ID NO 127 (other)
chain: SVSGKPQYMVLVPSLLHTETTEKGCVLLSYLNETVTVSASLESVRGNRSLFTDLEAENDVLHCVAFAVPKSSSNEEVMFLTVQVKGPTQEFKKRTTVMVKNEDSLVFVQTDKSIYKPGQTVKFRVVSMDENFHPLNELIPLVYIQDPKGNRIAQWQSFQLEGGLKQFSFPLSSEPFQGSYKVVVQKKSGGRTEHPFTVEEFVLPKFEVQVTVPKIITILEEEMNVSVCGLYTYGKPVPGHVTVSICRKYSDASDCHGEDSQAFCEKFSGQLNSHGCFYQQVKTKVFQLKRKEYEMKLHTEAQIQEEGTVVELTGRQSSEITRTITKLSFVKVDSHFRQGIPFFGQVRLVDGKGVPIPNKVIFIRGNEANYYSNATTDEHGLVQFSINTTNVMGTSLTVRVNYKDRSPCYGYQWVSEEHEEAHHTAYLVFSPSKSFVHLEPMSHELPCGHTQTVQAHYILNGGTLLGLKKLSFYYLIMAKGGIVRTGTHGLLVKQEDMKGHFSISIPVKSDIAPVARLLIYAVLPTGDVIGDSAKYDVENCLANKVDLSFSPSQSLPASHAHLRVTAAPQSVCALRAVDQSVLLMKPDAELSASSVYNLLPEKDLTGFPGPLNDQDDEDCINRHNVYINGITYTPVSSTNEKDMYSFLEDMGLKAFTNSKIRKPKMCPQLEQYEMHGPIPENFFGVSELEGRGSEAIPMSIPTEGEGEGEGVEEPHTKLRKYFPETWIWDLVVVNSAGVAEVGVTVPDTITEWKAGAFCLSEDAGLGISSTASLRAFQPFFVELTMPYSVIRGEAFTLKATVLNYLPKCIRVSVQLEASPAFLAVPVEKEQAPHCICANGRQTVSWAVTPKSLGNVNFTVSAEALESQELCGTEVPSVPEHGRKDTVIKPLLVEPEGLEKETTFNSLLCPSGGEVSEELSLKLPPNVVEESARASVSVLGDILGSAMQNTQNLLQMPYGCGEQNMVLFAPNIYVLDYLNETQQLTPEIKSKAIGYLNTGYQRQLNYKHYDGSYSTFGERYGRNQGNTWLTAFVLKTFAQARAYIFIDEAHITQALIWLSQRQKDNGCFRSSGSLLNNAIKGGVEDEVTLSAYITIALLEIPLTVTHPVVRNALFCLESAWKTAQEGDHGSHVYTKALLAYAFALAGNQDKRKEVLKSLNEEAVKKDNSVHWERPQKPKAPVGHFYEPQAPSAEVEMTSYVLLAYLTAQPAPTSEDLTSATNIVKWITKQQNAQGGFSSTQDTVVALHALSKYGAATFTRTGKAAQVTIQSSGTFSSKFQVDNNNRLLLQQVSLPELPGEYSMKVTGEGCVYLQTSLKYNILPEKEEFPFALGVQTLPQTCDEPKAHTSFQISLSVSYTGSRSASNMAIVDVKMVSGFIPLKPTVKMLERSNHVSRTEVSSNHVLIYLDKVSNQTLSLFFTVLQDVPVRDLKPAIVKVYDYYETDEFAIAEYNAPCSKDLGNADYKDDDDKGASHHHHHH

Protease Inhibition (% of WT) [1]: 161 % of WT
Protease Inhibition (% of WT) [2]: 185 % of WT
Protease Inhibition (% of WT) [3]: 86 % of WT
Protease Inhibition (% of WT) [4]: 67 % of WT
Protease Inhibition (% of WT) [5]: 100 % of WT
Protease Inhibition (% of WT) [6]: 388 % of WT
Protease Inhibition (% of WT) [7]: 136 % of WT
Protease Inhibition (% of WT) [8]: 117 % of WT
Protease Inhibition (% of WT) [9]: 500 % of WT
Protease Inhibition (% of WT) [10]: 20 % of WT
Protease Inhibition (% of WT) [11]: 300 % of WT
Protease Inhibition (% of WT) [12]: 10 % of WT
Protease Inhibition (% of WT) [13]: 437 % of WT
B2: Variant A2M, bait region SEQ ID NO 132 (other)
chain: SVSGKPQYMVLVPSLLHTETTEKGCVLLSYLNETVTVSASLESVRGNRSLFTDLEAENDVLHCVAFAVPKSSSNEEVMFLTVQVKGPTQEFKKRTTVMVKNEDSLVFVQTDKSIYKPGQTVKFRVVSMDENFHPLNELIPLVYIQDPKGNRIAQWQSFQLEGGLKQFSFPLSSEPFQGSYKVVVQKKSGGRTEHPFTVEEFVLPKFEVQVTVPKIITILEEEMNVSVCGLYTYGKPVPGHVTVSICRKYSDASDCHGEDSQAFCEKFSGQLNSHGCFYQQVKTKVFQLKRKEYEMKLHTEAQIQEEGTVVELTGRQSSEITRTITKLSFVKVDSHFRQGIPFFGQVRLVDGKGVPIPNKVIFIRGNEANYYSNATTDEHGLVQFSINTTNVMGTSLTVRVNYKDRSPCYGYQWVSEEHEEAHHTAYLVFSPSKSFVHLEPMSHELPCGHTQTVQAHYILNGGTLLGLKKLSFYYLIMAKGGIVRTGTHGLLVKQEDMKGHFSISIPVKSDIAPVARLLIYAVLPTGDVIGDSAKYDVENCLANKVDLSFSPSQSLPASHAHLRVTAAPQSVCALRAVDQSVLLMKPDAELSASSVYNLLPEKDLTGFPGPLNDQDDEDCINRHNVYINGITYTPVSSTNEKDMYSFLEDMGLKAFTNSKIRKPKMCPQLEQYEMHGPEGEGEGEGIPENFFGVSELEGRGSSEDLVVQIVEEPHTKLRKYFPETWIWDLVVVNSAGVAEVGVTVPDTITEWKAGAFCLSEDAGLGISSTASLRAFQPFFVELTMPYSVIRGEAFTLKATVLNYLPKCIRVSVQLEASPAFLAVPVEKEQAPHCICANGRQTVSWAVTPKSLGNVNFTVSAEALESQELCGTEVPSVPEHGRKDTVIKPLLVEPEGLEKETTFNSLLCPSGGEVSEELSLKLPPNVVEESARASVSVLGDILGSAMQNTQNLLQMPYGCGEQNMVLFAPNIYVLDYLNETQQLTPEIKSKAIGYLNTGYQRQLNYKHYDGSYSTFGERYGRNQGNTWLTAFVLKTFAQARAYIFIDEAHITQALIWLSQRQKDNGCFRSSGSLLNNAIKGGVEDEVTLSAYITIALLEIPLTVTHPVVRNALFCLESAWKTAQEGDHGSHVYTKALLAYAFALAGNQDKRKEVLKSLNEEAVKKDNSVHWERPQKPKAPVGHFYEPQAPSAEVEMTSYVLLAYLTAQPAPTSEDLTSATNIVKWITKQQNAQGGFSSTQDTVVALHALSKYGAATFTRTGKAAQVTIQSSGTFSSKFQVDNNNRLLLQQVSLPELPGEYSMKVTGEGCVYLQTSLKYNILPEKEEFPFALGVQTLPQTCDEPKAHTSFQISLSVSYTGSRSASNMAIVDVKMVSGFIPLKPTVKMLERSNHVSRTEVSSNHVLIYLDKVSNQTLSLFFTVLQDVPVRDLKPAIVKVYDYYETDEFAIAEYNAPCSKDLGNADYKDDDDKGASHHHHHH

Source: patent US20230250154A1 (CYTONICS, published 2023)
